Test results published in EP4733322A1 (dated 2026).

Target: T1, KRAS G12V peptide on HLA-A*11 (human)
T1 peptide: VVGAVGVGK
Test: cytokine release

B1: CR-KVA11-N03 (TCR, V domains shown)
Valpha: RKEVEQDPGPFNVPEGATVAFNCTYSNSASQSFFWYRQDCRKEPKLLMSVYSSGNEDGRFTAQLNRASQYISLLIRDSKLSDSATYLCVVPGGTGGGNKLTFGTGTQLKVEL
Vbeta: DTAVSQTPKYLVTQMGNDKSIKCEQNLGHDTMDWYKQDSKKFLKIMFSYNNKELIINETVPNRFSPKSPDKAHLNLHINSLELGDSAVYFCASSHWGAQETQYFGPGTRLLVL
binding result: recognises
